According to patent publication US5942405A, “Therapeutic and screening methods using C3a receptor and C3a” (priority 1997, dated 1999):

B1: rC5a: Human rC5a was expressed in E. coli and purified to homogeneity (protein, UniProt P01031 678-751, looked up)
C5a anaphylatoxin: TLQKKIEEIAAKYKHSVVKKCCYDGACVNNDETCEQRAARISLGPRCIKAFTECCVVASQLRANISHKDMQLGR
modifications: C5a anaphylatoxin recombinant, E. coli
notes: Human rC5a was expressed in E. coli and purified to homogeneity

Target: T1, C3a Receptor (Homo sapiens, UniProt Q16581)
T1 sequence (Q16581 1-482 F151C): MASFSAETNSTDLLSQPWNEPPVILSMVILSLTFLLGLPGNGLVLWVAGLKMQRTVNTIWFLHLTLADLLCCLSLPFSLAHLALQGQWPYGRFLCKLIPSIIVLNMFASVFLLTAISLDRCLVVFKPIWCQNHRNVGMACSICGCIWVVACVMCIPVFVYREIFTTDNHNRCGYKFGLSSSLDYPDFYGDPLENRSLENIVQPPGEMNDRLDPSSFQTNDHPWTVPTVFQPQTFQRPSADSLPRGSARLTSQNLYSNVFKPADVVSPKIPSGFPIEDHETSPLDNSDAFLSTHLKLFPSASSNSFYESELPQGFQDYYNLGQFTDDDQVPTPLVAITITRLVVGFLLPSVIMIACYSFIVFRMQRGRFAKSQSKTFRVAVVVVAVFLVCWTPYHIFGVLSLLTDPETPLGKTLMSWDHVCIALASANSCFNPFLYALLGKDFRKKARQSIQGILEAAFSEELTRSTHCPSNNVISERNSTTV
Experiment: Calcium mobilization by Fura 2 loaded RBL-2H3 cells stably expressing C3a Receptor
Type: cell-based
Design: cDNA encoding a complete orphan GPCR of 482 amino acids; expressed in transfected cells
Details: for EC50: Fura 2 loaded RBL-2H3 cells expressing C3a Receptor, read-out: EC50, mobilization of intracellular Ca2+; for mobilization of intracellular Ca2+ (response in words): RBL-2H3 cells expressing C3a Receptor, Fig. 4: rC5a 100 nM, C3a analogue peptide 1 uM
Procedure: (A) Electrophysiological response of Xenopus oocytes injected with cRNA for C3a Receptor (10 ng), total U937 RNA (25 ng), or a mixture of C3a Receptor (10 ng) and U937 RNA (25 ng) to 10 nM rC5a, 10 nM C3a analogue peptide, 10 nM platelet activating factor (PAF), 10 nM fMetLeuPhe. Inset, represents typical response of oocytes co-injected with C3a Receptor cRNA+U937 RNA to 10 nM C3a. (B) Electrophysiological response of oocytes injected with C5a-R cRNA (10 ng), U937 RNA (25 ng) or a mixture of C5a-R and U937 RNA, to 10 nM rC5a or 10 nM C3a analogue peptide. […] Calcium mobilization by Fura 2 loaded cells expressing C5a receptor (FIGS. 4A & 4C) or C3a Receptor (FIGS. 4B & 4D) in response to rC5a (10 nM, FIG. 4A or 100 nM, FIG. 4B) or C3a analogue peptide (1 uM, FIGS. 4C & 4D).
To prepare C3a Receptor for expression in mammalian cells, a 1.6 kb cDNA fragment was obtained by PCR amplification that encompassed the entire C3a Receptor open reading frame. This fragment was subcloned into KpnI/Hind III sites of the mammalian expression vector, pCDN (Aiyar, N., et al (1994) Mol. Cell. Bio. 131, 75-86). Oligonucleotide primers used for PCR amplification were 5'-GA AGT GGT ACC ATG GCG TC-3' (SEQ ID NO:4) and 5'-GC TCCAAGCTTTCACACAGTTG-3' (SEQ ID NO:5) (the translation start and stop codons are underlined). RBL-2H3 cells were electroporated with either C3a Receptor or C5a-R in the pCDN mamalian expression vector (Aiyar, N., et al (1994) Mol. Cell. Bio. 131, 75-86), exactly as described (DeMartino, J. A., et al (1994) J. Biol Chem. 269, 14446-14450). Individual G418 resistant (400 μg/ml) colonies were isolated and expanded. Clonal cell lines expressing either C3a Receptor or C5a-R were chosen for further functional and binding studies.
RBL-2H3 cells (Siraganian, R. P., et al (1982) Fed. Proc. 41, 30-34), a rat basophil cell line, when transfected with an expression plasmid encoding the C5a-R express receptors that are functionally active (DeMartino, J. A., et al (1994) J. Biol. Chem. 269, 14446-14450). RBL-2H3 cells were stably transfected with mammalian expression plasmids encoding the C5a-R or C3a Receptor and Fura 2 loaded cells were tested for a C5a or C3a induced mobilization of intracellular Ca^2+.
Fura 2 loaded clonal cell lines expressing C5a-R or C3a Receptor were assayed for functional response, Ca^2+ mobilization, as described (Saussy, D. L. Jr., et al (1989) J. Biol. Chem. 264, 19845-19855).

Molecule	EC50 [nM]	mobilization of intracellular Ca2+ (response in words)	mobilization of intracellular Ca2+ (response in words) (listed as native human C3a)	mobilization of intracellular Ca2+ (response in words) (listed as C3a synthetic peptide)
C3a: C3a was purchased from Advanced Research Technologies, San Diego; anaphylatoxin; radioiodinated for binding	0.3	bind and respond	responded	–
WWGKKYRASKLGLAR [C3a analogue synthetic peptide, reference compound]	3.9	respond	–	robust response
B1	–	not C3a Receptor expressing cells responded	–	–
